From patent publication US7063950

Tests used:
[1] = biological target: human neuronal calcium channel subunits α1B-1β1-2 (human); experiment: saturation binding of 125I-ω-CgTx GVIA to transiently transfected HEK293 cells
[2] = biological target: human neuronal calcium channel α1B-1α2bβ1-2 (human); experiment: as above
[3] = biological target: human neuronal calcium channel subunits α1B-2β1-3 (human); experiment: as above
[4] = biological target: human neuronal calcium channel subunits α1B-2β1-2 (human); experiment: as above
[5] = biological target: human neuronal calcium channel subunits α1B-1β1-3 (human); experiment: as above
[6] = biological target: human neuronal calcium channel α1B-2α2bβ1-2 (human); experiment: as above
[7] = biological target: human neuronal calcium channel α1B-1α2bβ1-3 (human); experiment: as above
[8] = biological target: human neuronal calcium channel subunits α1B-1β1-2 (human)
[9] = biological target: human neuronal calcium channel α1B-1α2bβ1-2 (human)
[10] = biological target: human neuronal calcium channel subunits α1B-1α2b (human)
[11] = biological target: human neuronal calcium channel subunits α1B-1β1-3 (human)
[12] = biological target: human neuronal calcium channel α1B-2α2bβ1-2 (human)
[13] = biological target: human neuronal calcium channel α1B-1α2bβ1-3 (human)
[14] = biological target: human neuronal calcium channel subunits α1B-1α2b (human); remark: listed apart in the source
[15] = biological target: human neuronal calcium channel α1E-3α2bβ1-3 (human); experiment: cell-based or functional assay

125I-ω-CgTx GVIA (from UniProt P01522 46-72) (peptide)
Bmax (sites/cell) [1]: 5760 sites/cell
Kd [1]: 0.0179 nM
Bmax (sites/cell) [2]: 45300 sites/cell
Kd [2]: 0.0549 nM
Bmax (sites/cell) [3]: 2940 sites/cell
Kd [3]: 0.0222 nM
Bmax (sites/cell) [4]: 2130 sites/cell
Kd [4]: 0.0164 nM
Bmax (sites/cell) [5]: 8730 sites/cell
Kd [5]: 0.0179 nM
Bmax (sites/cell) [6]: 19400 sites/cell
Kd [6]: 0.053 nM
Bmax (sites/cell) [7]: 91000 sites/cell
Kd [7]: 0.0532 nM
fold increase of surface binding against α1B-1 alone [8]: 8 fold
fold binding sites per cell against α1B-2α2bβ1-2 [9]: 2.5 fold
fold surface receptor density against α1B-1β1-2 [9]: 8 fold
fold increase of binding capacity against α1B-1 alone [10]: 3 fold
fold increase of surface binding against α1B-1 alone [11]: 10 fold
fold surface receptor density against α1B-2β1-2 [12]: 9 fold
fold binding capacity against α1B-1α2bβ1-2 [13]: 2 fold
fold binding sites per cell against α1B-2α2bβ1-3 [13]: 2.5 fold
fold surface receptor density against α1B-1β1-3 [13]: 10 fold
Bmax (sites/cell) [14]: 2260 sites/cell
Kd [14]: 0.0846 nM

ω-Aga-IVa (from UniProt P30288 1-48) (peptide)
block of barium current (whole-cell patch clamp, HEK 293 cells) (% block at 10 nM) [15]: 73
